In patent US20140087995A1 (published 2014):
Numbered stars: 1 amine (or outer) side, 2 acyl side, 3 side chain; on linkers, the order of the positions; unused ones are H or OH. Bridge positions count the residues as written; N and C are the ends. Ends that are not written are not given here. * marks the point of attachment. C20 diacid = O=C(O)CCCCCCCCCCCCCCCCCCC(=O)*; γGlu = O=C(O)[C@H](CCC(=O)[*:2])N[*:1]

T1: human calcitonin receptor (human, UniProt P30988 25-474)
T1 sequence (looked up): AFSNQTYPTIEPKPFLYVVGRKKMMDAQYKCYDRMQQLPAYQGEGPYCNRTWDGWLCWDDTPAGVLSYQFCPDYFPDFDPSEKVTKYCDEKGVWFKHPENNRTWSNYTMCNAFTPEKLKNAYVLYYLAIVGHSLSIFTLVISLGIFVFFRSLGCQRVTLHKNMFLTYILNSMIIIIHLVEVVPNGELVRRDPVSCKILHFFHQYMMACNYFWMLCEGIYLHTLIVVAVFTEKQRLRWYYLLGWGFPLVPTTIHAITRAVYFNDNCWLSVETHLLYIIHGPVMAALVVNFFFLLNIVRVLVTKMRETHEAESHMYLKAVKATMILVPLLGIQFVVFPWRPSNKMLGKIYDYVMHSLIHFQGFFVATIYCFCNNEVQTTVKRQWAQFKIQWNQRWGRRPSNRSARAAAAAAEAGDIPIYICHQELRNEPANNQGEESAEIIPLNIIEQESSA

T2: rat calcitonin receptor (rat, UniProt P32214 25-516)
T2 construct: whole, on cells; Used as membranes prepared from transiently transfected BHK tk'ts 13 cells (Assay VIII); also called rCTR; rat calcitonin (a) receptor
T2 sequence (looked up): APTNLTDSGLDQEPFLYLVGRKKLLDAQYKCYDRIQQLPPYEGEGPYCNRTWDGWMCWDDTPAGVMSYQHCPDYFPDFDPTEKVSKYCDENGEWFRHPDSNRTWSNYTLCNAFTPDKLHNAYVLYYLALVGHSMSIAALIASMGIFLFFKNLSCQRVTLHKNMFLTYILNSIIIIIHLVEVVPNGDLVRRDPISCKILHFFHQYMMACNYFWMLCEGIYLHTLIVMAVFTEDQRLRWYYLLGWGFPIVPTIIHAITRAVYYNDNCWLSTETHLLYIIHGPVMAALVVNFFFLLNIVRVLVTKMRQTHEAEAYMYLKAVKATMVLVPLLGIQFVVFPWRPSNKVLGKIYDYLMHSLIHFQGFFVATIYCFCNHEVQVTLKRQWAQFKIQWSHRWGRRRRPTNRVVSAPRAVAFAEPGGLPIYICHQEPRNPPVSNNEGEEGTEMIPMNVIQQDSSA


Tests used:
[1] = target: T1, human calcitonin receptor; experiment: cell-based or functional assay
rat calcitonin receptor = target: T2, rat calcitonin receptor; experiment: SPA competition binding, displacement of 125I-calcitonin from membranes of BHK tk'ts 13 cells with rat calcitonin receptor (Assay VIII)

| hCTR funct. EC50 (CRE luciferase reporter, BHK cells) [1] [nM] | IC50 (rat calcitonin receptor) [nM] | Binder |
| --- | --- | --- |
| 2.35 |  | {C20 diacid-γGlu}-KCNTATCATQRLAEFLRHSSPNFGAIPSSTNVGHNTY-NH2 (disulfide 2-7; SMILES CC[C@H](C)[C@H](NC(=O)[C@H](C)NC(=O)CNC(=O)[C@H](Cc1ccccc1)NC(=O)[C@H](CC(N)=O)NC(=O)[C@@H]1CCCN1C(=O)[C@H](CO)NC(=O)[C@H](CO)NC(=O)[C@H](Cc1c[nH]cn1)NC(=O)[C@H](CCCNC(=N)N)NC(=O)[C@H](CC(C)C)NC(=O)[C@H](Cc1ccccc1)NC(=O)[C@H](CCC(=O)O)NC(=O)[C@H](C)NC(=O)[C@H](CC(C)C)NC(=O)[C@H](CCCNC(=N)N)NC(=O)[C@H](CCC(N)=O)NC(=O)[C@@H](NC(=O)[C@H](C)NC(=O)[C@@H]1CSSC[C@H](NC(=O)[C@H](CCCCN)NC(=O)CC[C@H](NC(=O)CCCCCCCCCCCCCCCCCCC(=O)O)C(=O)O)C(=O)N[C@@H](CC(N)=O)C(=O)N[C@@H]([C@@H](C)O)C(=O)N[C@@H](C)C(=O)N[C@@H]([C@@H](C)O)C(=O)N1)[C@@H](C)O)C(=O)N1CCC[C@H]1C(=O)N[C@@H](CO)C(=O)N[C@@H](CO)C(=O)N[C@H](C(=O)N[C@@H](CC(N)=O)C(=O)N[C@H](C(=O)NCC(=O)N[C@@H](Cc1c[nH]cn1)C(=O)N[C@@H](CC(N)=O)C(=O)N[C@H](C(=O)N[C@@H](Cc1ccc(O)cc1)C(N)=O)[C@@H](C)O)C(C)C)[C@@H](C)O, Synthetic acylated analogue of human amylin; also called compound 17) |
| 2.68 |  | KCNTATCATQRLANFLRHSSPNFGAIPSSTNVGHNTY (C20 diacid-gGlu on the alpha amino group of N-terminal Lys1; disulfide bridge Cys2-Cys7 and C-terminal amide as in human amylin, Synthetic acylated analogue of human amylin; also called compound 40) [N^α1-[(4S)-4-carboxy-4-(19-carboxynonadecanoylamino)butanoyl]-[Arg17,Pro21,Pro27,His34]-h-amylin] |
|  | 30.9 | KCNTATCATQRLADFLRHSSPNFGAIPSSTNVGSRTY-NH2 (disulfide 2-7 (inferred)) [[Asp14,Arg17,Pro21,Pro27,Arg35]-h-amylin] |
